From patent US6074842 come the findings set out here.

In the assay the target is rat perilipin A (62-kDa phosphoprotein of unstimulated rat adipocytes; 65/67-kDa forms after stimulation) (rat). As to conditions: scale: ratio to 1.

Take cAMP-dependent protein kinase (enzyme): the 32P incorporation and shift in SDS-PAGE from 62-kDa to 65/67-kDa in isoproterenol-stimulated rat adipocytes came to 5.
